Experimental data reported in patent US20040106545A1 (MCGILL UNIVERSITY, published 2004).
Like-named read-outs stand apart in the source and are kept apart here. Values belong to the binder of their own block, whether it stands above or below them. Positions of bridges follow the written chain, without caps; N, C: chain ends.

Experiments:
Assay in all cases: cell-based or functional assay
[1] = target: T1, chick N-cadherin expressed on transfected 3T3 cells (chick, UniProt P10288 165-912)
T1 sequence (looked up): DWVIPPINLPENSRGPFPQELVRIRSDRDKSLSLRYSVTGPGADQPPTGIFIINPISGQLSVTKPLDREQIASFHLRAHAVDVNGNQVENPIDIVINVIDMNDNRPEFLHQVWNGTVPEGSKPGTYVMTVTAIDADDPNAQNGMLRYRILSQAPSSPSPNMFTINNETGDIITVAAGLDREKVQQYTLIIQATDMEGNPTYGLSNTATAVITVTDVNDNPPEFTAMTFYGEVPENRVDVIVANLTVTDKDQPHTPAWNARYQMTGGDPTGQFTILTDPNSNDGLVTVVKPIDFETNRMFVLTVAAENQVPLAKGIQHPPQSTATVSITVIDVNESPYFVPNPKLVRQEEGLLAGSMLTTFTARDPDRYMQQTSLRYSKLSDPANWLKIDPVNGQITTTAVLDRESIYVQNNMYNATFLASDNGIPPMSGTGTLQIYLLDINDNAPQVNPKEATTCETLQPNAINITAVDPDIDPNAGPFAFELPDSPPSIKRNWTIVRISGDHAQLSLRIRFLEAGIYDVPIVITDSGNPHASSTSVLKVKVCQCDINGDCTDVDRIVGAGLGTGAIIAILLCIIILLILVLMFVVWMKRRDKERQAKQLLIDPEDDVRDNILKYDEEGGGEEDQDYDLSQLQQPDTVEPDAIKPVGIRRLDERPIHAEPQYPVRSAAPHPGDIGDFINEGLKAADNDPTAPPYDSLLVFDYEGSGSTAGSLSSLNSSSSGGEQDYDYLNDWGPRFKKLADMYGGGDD

[2] = target: T1, chick N-cadherin expressed on …; remark: listed apart in the source
[3] = target: human L1 expressed on transfected 3T3 cells (human, UniProt P32004 20-1257)
[4] = target: T1, chick N-cadherin expressed on …; remark: listed apart in the source
[5] = target: T1, chick N-cadherin expressed on …; remark: listed apart in the source
[6] = target: T2, E-cadherin on Madin Darby canine kidney (MDCK) cells (canine (MDCK cells), UniProt F1PAA9 157-885)
T2 sequence (looked up): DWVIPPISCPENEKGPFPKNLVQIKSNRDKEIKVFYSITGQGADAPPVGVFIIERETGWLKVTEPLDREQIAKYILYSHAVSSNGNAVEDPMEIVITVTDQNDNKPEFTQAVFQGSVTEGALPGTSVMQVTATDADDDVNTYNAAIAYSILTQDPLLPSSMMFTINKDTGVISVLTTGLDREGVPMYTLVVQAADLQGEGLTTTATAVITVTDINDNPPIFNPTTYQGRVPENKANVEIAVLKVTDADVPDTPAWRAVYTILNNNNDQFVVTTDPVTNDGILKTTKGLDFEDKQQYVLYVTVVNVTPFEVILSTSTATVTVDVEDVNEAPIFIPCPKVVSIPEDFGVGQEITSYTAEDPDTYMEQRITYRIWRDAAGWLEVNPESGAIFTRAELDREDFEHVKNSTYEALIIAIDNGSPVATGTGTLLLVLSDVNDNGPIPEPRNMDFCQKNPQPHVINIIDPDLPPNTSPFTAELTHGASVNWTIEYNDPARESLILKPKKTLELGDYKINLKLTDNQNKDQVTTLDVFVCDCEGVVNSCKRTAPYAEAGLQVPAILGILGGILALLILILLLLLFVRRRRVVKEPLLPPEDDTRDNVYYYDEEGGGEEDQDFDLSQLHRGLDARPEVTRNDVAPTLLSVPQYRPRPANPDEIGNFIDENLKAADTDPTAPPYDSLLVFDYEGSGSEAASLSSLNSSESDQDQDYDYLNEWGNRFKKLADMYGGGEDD

[7] = target: T2, E-cadherin on Madin Darby canine kidney …; remark: listed apart in the source
[8] = target: N-cadherin expressed on transfected 3T3 cells (Examples 2 and 21)
[9] = target: T1, chick N-cadherin expressed on …; remark: listed apart in the source
[10] = target: T1, chick N-cadherin expressed on …; remark: listed apart in the source

Sequence of human L1 expressed on transfected 3T3 cells (P32004 20-1257): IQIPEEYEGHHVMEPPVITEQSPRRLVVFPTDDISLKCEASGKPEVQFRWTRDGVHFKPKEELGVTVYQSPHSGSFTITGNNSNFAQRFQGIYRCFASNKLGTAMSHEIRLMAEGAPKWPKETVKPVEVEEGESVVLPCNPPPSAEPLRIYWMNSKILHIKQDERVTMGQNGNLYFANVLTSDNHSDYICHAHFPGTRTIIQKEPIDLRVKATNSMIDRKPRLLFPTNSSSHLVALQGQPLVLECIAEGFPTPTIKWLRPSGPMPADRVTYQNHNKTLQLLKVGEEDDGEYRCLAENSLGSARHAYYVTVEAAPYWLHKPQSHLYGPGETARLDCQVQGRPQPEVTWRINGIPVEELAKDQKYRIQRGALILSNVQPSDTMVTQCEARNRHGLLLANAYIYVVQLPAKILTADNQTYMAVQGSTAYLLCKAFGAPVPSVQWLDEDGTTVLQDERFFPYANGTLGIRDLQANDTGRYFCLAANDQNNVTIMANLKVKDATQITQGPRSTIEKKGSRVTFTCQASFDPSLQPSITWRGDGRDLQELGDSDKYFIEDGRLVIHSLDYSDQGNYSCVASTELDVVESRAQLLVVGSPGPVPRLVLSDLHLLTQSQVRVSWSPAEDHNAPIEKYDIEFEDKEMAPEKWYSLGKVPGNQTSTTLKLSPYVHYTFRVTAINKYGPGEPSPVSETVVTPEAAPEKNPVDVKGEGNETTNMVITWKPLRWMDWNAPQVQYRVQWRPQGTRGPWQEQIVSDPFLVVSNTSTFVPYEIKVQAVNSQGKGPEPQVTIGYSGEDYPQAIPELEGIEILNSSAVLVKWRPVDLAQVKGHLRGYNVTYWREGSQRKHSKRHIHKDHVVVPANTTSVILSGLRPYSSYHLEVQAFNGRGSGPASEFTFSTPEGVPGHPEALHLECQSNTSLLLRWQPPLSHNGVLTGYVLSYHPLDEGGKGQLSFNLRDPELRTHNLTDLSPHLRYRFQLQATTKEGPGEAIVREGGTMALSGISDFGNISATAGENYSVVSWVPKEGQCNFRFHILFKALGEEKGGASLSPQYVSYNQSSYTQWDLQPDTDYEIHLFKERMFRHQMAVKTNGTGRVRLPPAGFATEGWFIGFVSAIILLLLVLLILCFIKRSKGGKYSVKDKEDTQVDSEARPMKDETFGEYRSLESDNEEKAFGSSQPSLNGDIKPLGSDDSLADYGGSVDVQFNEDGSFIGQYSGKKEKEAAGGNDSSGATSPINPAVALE

- % inhibition of neurite outgrowth (peptide 125 µg/mL) [1]: 88.3%
- EC50 for inhibition of neurite outgrowth [1]: 60 µM
- % Inhibition of N-Cadherin Response (peptide 125 µg/ml) [2]: 88.3%
- % Inhibition of L1 Response (peptide 125 µg/ml) [3]: 6%
B1: N-Ac-CHAVDIC-NH2 (peptide)
peptide: Ac-CHAVDIC-NH2
modifications: disulfide 1-7 (inferred)

- Percent Inhibition of N-cadherin dependent neurite outgrowth (peptide 250 µg/ml) [4]: 32.5%
B2: N-Ac-CHAVC-E-NH2 (peptide)
peptide: Ac-CHAVCE-NH2
modifications: disulfide 1-5 (inferred)

- EC50 for inhibition of neurite outgrowth [5]: 120 µM
- EC50, decrease of electrical resistance across MDCK cell monolayer [6]: 210 µM
B3: N-Ac-CHAVC-Y-NH2 (peptide)
peptide: Ac-CHAVCY-NH2
modifications: disulfide 1-5 (inferred)

- EC50, decrease of electrical resistance across MDCK cell monolayer [7]: 20 µM
- % Inhibition of neurite outgrowth, 250 µg/mL (rat neurons) [8]: 0%
- % inhibition of N-cadherin dependent neurite outgrowth (peptide 250 µg/mL) [9]: 11%
B4: N-Ac-CSHAVC-NH2 (peptide)
peptide: Ac-CSHAVC-NH2
modifications: disulfide 1-6 (inferred)

- Percent Inhibition of N-cadherin dependent neurite outgrowth (peptide 250 µg/ml) [4]: 37.8%
- EC50, decrease of electrical resistance across MDCK cell monolayer [6]: 430 µM
B5: N-Ac-CHAVC-SS-NH2 (peptide)
peptide: Ac-CHAVCSS-NH2
modifications: disulfide 1-5 (inferred)

- Percent Inhibition of N-cadherin dependent neurite outgrowth (peptide 250 µg/ml) [4]: 10.6%
B6: N-Ac-YCHAVC-NH2 (peptide)
peptide: Ac-YCHAVC-NH2
modifications: disulfide 2-6
SMILES: CC(=O)N[C@@H](Cc1ccc(O)cc1)C(=O)N[C@H]1CSSC[C@@H](C(N)=O)NC(=O)[C@H](C(C)C)NC(=O)[C@H](C)NC(=O)[C@H](Cc2c[nH]cn2)NC1=O

- % Inhibition of neurite outgrowth, 250 µg/mL (rat neurons) [8]: 0%
- % inhibition of N-cadherin dependent neurite outgrowth (peptide 250 µg/mL) [9]: 1.3%
- Percent Inhibition of N-cadherin dependent neurite outgrowth (peptide 250 µg/ml) [10]: 1.3%
B7: H-CAHAVDC-NH2 (peptide)
peptide: H-CAHAVDC-NH2
modifications: disulfide 1-7
SMILES: CC(C)[C@@H]1NC(=O)[C@H](C)NC(=O)[C@H](Cc2c[nH]cn2)NC(=O)[C@H](C)NC(=O)[C@@H](N)CSSC[C@@H](C(N)=O)NC(=O)[C@H](CC(=O)O)NC1=O

- % inhibition of neurite outgrowth (peptide 125 µg/mL) [1]: 62%
- EC50 for inhibition of neurite outgrowth [1]: 70 µM
- % Inhibition of N-Cadherin Response (peptide 125 µg/ml) [2]: 62%
- % Inhibition of L1 Response (peptide 125 µg/ml) [3]: 1.7%
B8: N-Ac-CHAVDINC-NH2 (peptide)
peptide: Ac-CHAVDINC-NH2
modifications: disulfide 1-8 (inferred)

- Percent Inhibition of N-cadherin dependent neurite outgrowth (peptide 250 µg/ml) [4]: 23.7%
- EC50, decrease of electrical resistance across MDCK cell monolayer [6]: 480 µM
B9: N-Ac-CHAVC-T-NH2 (peptide)
peptide: Ac-CHAVCT-NH2
modifications: disulfide 1-5 (inferred)

- Percent Inhibition of N-cadherin dependent neurite outgrowth (peptide 250 µg/ml) [4]: 6.9%
- EC50, decrease of electrical resistance across MDCK cell monolayer [6]: 490 µM
B10: N-Ac-CHAVC-S-NH2 (peptide)
peptide: Ac-CHAVCS-NH2
modifications: disulfide 1-5 (inferred)

- % inhibition of neurite outgrowth (peptide 125 µg/mL) [1]: 77.1%
- EC50 for inhibition of neurite outgrowth [1]: 93 µM
- % Inhibition of N-Cadherin Response (peptide 125 µg/ml) [2]: 77.1%
- % Inhibition of L1 Response (peptide 125 µg/ml) [3]: 9.6%
- % Inhibition of neurite outgrowth, 250 µg/mL (rat neurons) [8]: 88%
- % inhibition of N-cadherin dependent neurite outgrowth (peptide 250 µg/mL) [9]: 88.4%
B11: N-Ac-CHAVDC-NH2 (peptide)
peptide: Ac-CHAVDC-NH2
modifications: disulfide 1-6 (inferred)

- EC50, decrease of electrical resistance across MDCK cell monolayer [7]: 270 µM
- % Inhibition of N-Cadherin Response (peptide 125 µg/ml) [2]: 33.2%
- % Inhibition of L1 Response (peptide 125 µg/ml) [3]: 41.6%
- EC50 for inhibition of the N-cadherin response (neurite outgrowth) [5]: 220 µM
- % Inhibition of neurite outgrowth, 250 µg/mL (rat neurons) [8]: 65%
- % inhibition of N-cadherin dependent neurite outgrowth (peptide 250 µg/mL) [9]: 68.2%
- Percent Inhibition of N-cadherin dependent neurite outgrowth (peptide 250 µg/ml) [10]: 68.2%
B12: N-Ac-CHAVC-NH2 (peptide)
peptide: Ac-CHAVC-NH2
modifications: disulfide 1-5 (inferred)

- EC50, decrease of electrical resistance across MDCK cell monolayer [7]: 22 µM
B13: N-Ac-CFSHAVC-NH2 (peptide)
peptide: Ac-CFSHAVC-NH2
modifications: disulfide 1-7 (inferred)

- Percent Inhibition of N-cadherin dependent neurite outgrowth (peptide 250 µg/ml) [4]: 3.3%
- EC50, decrease of electrical resistance across MDCK cell monolayer [6]: 470 µM
B14: N-Ac-CHAVC-D-NH2 (peptide)
peptide: Ac-CHAVCD-NH2
modifications: disulfide 1-5 (inferred)

- % inhibition of neurite outgrowth (peptide 125 µg/mL) [1]: 64.9%
- EC50 for inhibition of neurite outgrowth [1]: 128 µM
- EC50 for inhibition of neurite outgrowth [5]: 80 µM
B15: N-Ac-CHAVYC-NH2 (peptide)
peptide: Ac-CHAVYC-NH2
modifications: disulfide 1-6 (inferred)

- % Inhibition of neurite outgrowth, 250 µg/mL (rat neurons) [8]: 0%
- % inhibition of N-cadherin dependent neurite outgrowth (peptide 250 µg/mL) [9]: -3.7%
- Percent Inhibition of N-cadherin dependent neurite outgrowth (peptide 250 µg/ml) [10]: -3.7%
B16: H-CAHAVDIC-NH2 (peptide)
peptide: H-CAHAVDIC-NH2
modifications: disulfide 1-8 (inferred)

- % Inhibition of neurite outgrowth, 250 µg/mL (rat neurons) [8]: 0%
- % inhibition of N-cadherin dependent neurite outgrowth (peptide 250 µg/mL) [9]: 1.7%
- Percent Inhibition of N-cadherin dependent neurite outgrowth (peptide 250 µg/ml) [10]: 1.7%
B17: H-CHAVC-NH2 (peptide)
peptide: H-CHAVC-NH2
modifications: disulfide 1-5 (inferred)

- EC50, decrease of electrical resistance across MDCK cell monolayer [6]: 490 µM
B18: N-Ac-S-CHAVC-NH2 (peptide)
peptide: Ac-SCHAVC-NH2
modifications: disulfide 2-6
SMILES: CC(=O)N[C@@H](CO)C(=O)N[C@H]1CSSC[C@@H](C(N)=O)NC(=O)[C@H](C(C)C)NC(=O)[C@H](C)NC(=O)[C@H](Cc2c[nH]cn2)NC1=O
